The record followed here is patent US20170363644.

The target in the data set is Aβ42 oligomers, P05067.

B1: factor XII (FXII) (protein)
chain: IPPWEAPKEHKYKAEEHTVVLTVTGEPCHFPFQYHRQLYHKCTHKGRPGPQPWCATTPNFDQDQRWGYCLEPKKVKDHCSKHSPCQKGGTCVNMPSGPHCLCPQHLTGNHCQKEKCFEPQLLRFFHKNEIWYRTEQAAVARCQCKGPDAHCQRLASQACRTNPCLHGGRCLEVEGHRLCHCPVGYTGAFCDVDTKASCYDGRGLSYRGLARTTLSGAPCQPWASEATYRNVTAEQARNWGLGGHAFCRNPDNDIRPWCFVLNRDRLSWEYCDLAQCQTPTQAAPPTPVSPRLHVPLMPAQPAPPKPQPTTRTPPQSQTPGALPAKREQPPSLTRNGPLSCGQRLRKSLSSMTRVVGGLVALRGAHPYIAALYWGHSFCAGSLIAPCWVLTAAHCLQDRPAPEDLTVVLGQERRNHSCEPCQTLAVRSYRLHEAFSPVSYQHDLALLRLQEDADGSCALLSPYVQPVCLPSGAARPSETTLCQVAGWGHQFEGAEEYASFLQEAQVPFLSLERCSAPDVHGSSILPGMLCAGFLEGGTDACQGDSGGPLVCEDQAAERRLTLQGIISWGSGCGDRNKPGVYTDVAYYLAWIREHTVS
For B1, the “FXII autoactivation, chromogenic substrate assay with purified FXII” value is listed as “Aβ42 oligomers can directly induce FXII autoactivation”; the “FXII cleavage in human plasma (Western blot: FXII zymogen and FXIIa heavy chain)” value is “plasma incubated with Aβ42 had decreased FXII zymogen and increased FXIIa heavy chain compared to incubation with vehicle”.
